Results taken from patent publication WO2017208210A1.
Substitutions are numbered along the chain they refer to. Blank lines part the entries; values can stand above or below the binder they belong to.

Experiments:
[1] = molecular target: T1, recombinant hMCAM-His (human) (UniProt P43121); assay: competitive ELISA on hMCAM-His against biotinylated rodent or chimeric antibody
T1 sequence: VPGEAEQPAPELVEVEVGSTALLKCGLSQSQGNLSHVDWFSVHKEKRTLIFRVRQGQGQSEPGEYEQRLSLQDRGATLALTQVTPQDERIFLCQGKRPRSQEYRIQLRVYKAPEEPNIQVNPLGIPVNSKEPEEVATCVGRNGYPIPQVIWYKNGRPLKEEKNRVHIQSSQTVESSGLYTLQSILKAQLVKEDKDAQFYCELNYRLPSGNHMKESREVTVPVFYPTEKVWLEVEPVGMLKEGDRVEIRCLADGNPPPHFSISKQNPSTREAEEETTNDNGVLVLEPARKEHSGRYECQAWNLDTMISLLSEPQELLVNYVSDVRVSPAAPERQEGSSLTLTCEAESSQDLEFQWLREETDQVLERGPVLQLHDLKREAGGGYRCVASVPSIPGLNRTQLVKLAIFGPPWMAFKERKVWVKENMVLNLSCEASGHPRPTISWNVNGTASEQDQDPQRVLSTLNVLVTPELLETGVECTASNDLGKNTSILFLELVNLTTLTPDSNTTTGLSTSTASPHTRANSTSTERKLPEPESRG

[2] = molecular target: T2, human MCAM expressed on CHO cells transfected with the full length human MCAM gene (human) (UniProt P43121); assay: laminin/FACS assay, blocking of laminin 411 binding to hMCAM expressing CHO cells
T2 sequence: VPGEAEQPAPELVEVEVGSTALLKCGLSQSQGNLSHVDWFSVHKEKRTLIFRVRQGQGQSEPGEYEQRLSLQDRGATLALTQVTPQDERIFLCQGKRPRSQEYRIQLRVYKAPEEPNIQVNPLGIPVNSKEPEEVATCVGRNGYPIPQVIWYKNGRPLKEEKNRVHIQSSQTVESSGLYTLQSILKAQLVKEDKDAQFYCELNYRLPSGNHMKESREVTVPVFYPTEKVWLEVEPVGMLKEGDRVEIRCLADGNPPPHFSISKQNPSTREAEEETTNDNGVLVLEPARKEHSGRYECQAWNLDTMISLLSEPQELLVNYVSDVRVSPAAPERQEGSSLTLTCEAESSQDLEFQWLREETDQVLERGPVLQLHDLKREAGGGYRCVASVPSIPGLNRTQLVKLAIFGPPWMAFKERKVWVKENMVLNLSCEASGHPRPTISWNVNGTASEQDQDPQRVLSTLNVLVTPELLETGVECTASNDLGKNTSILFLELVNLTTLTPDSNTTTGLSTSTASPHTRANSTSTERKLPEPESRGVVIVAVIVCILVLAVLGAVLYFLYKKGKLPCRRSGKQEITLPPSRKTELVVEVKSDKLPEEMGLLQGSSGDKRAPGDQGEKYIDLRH

[3] = molecular target: chimpanzee MCAM on circulating T cells (chimpanzee); assay: FACS, chimpanzee whole blood in vitro

- fold reduction in apparent affinity against the rodent parent [1]: < 2 x
- fold reduction in potency (laminin blocking) against the rodent parent [2]: < 2 x
B1: humanized 2120 antibody VH5VL3 (G-A N-deamidation mutant VH/conservative VL) (antibody, V domains shown)
VH: QVTLKESGPVLVKPTETLTLTCTVSGFSLTSNAVSWVRQPPGKALEWIAAISSGGTTYYNSAFKSRLTISRDTSKSQVVLTMTNMDPVDTATYYCARRYGYGWYFDFWGQGTLVTVSS
VL: DIQMTQSPSSLSASVGDRVTINCKASQNIYNSLAWYQQKPGKAPKVLIFNANSLQTGIPSRFSGSGSGTDFTLTISSLQPEDFATYYCQQFYSGYTFGQGTKLEIK

- concentration required to saturate MCAM [3]: 1 to 3 µg/mL
B2: PRX003 (humanized anti-MCAM antibody, human IgG1 kappa isotype) (antibody, V domains shown)
VH: B1 VH with Q1E
VL: B1 VL
